In the Human Domainome abundance scans (Beltran et al. 2025):
± gives the uncertainty stated by the source.

B1: Calcium-binding protein 2, residues 155 to 219; numbered along this chain, Q9NPB3 (parent)
chain: RELRDAFREFDTNGDGRISVGELRAALKALLGERLSQREVDEILQDVDLNGDGLVDFEEFVRMMS

Variants of: B1
Assay: abundance fitness (aPCA) (normalised: wild type 0, dead -1); higher = more abundant; growth selection in yeast, the domain comes from the species named
Details: Homo sapiens

Abundance fitness, by site and new letter:
A25: R 0.051 ± 0.054, S 0.084 ± 0.096, T -0.035 ± 0.11, V -0.035 ± 0.063, W -0.189 ± 0.075, Y -0.159 ± 0.16
A26: C 0.215 ± 0.11, D -0.379 ± 0.27, E -0.86 ± 0.12, F -0.041 ± 0.29, G 0.05 ± 0.081, H -0.228 ± 0.15, K -0.587 ± 0.43, L 0.073 ± 0.058, M 0.111 ± 0.11, N -0.266 ± 0.16, P -0.251 ± 0.07, R -0.371 ± 0.069, S -0.214 ± 0.072, T -0.268 ± 0.091, V -0.095 ± 0.1, W -0.454 ± 0.097, Y -0.17 ± 0.1
L27: A 0.122 ± 0.073, C 0.014 ± 0.091, D -0.464 ± 0.14, E -0.311 ± 0.077, F 0.077 ± 0.083, G 0.165 ± 0.052, H -0.091 ± 0.15, I 0.102 ± 0.11, K -0.006 ± 0.26, M -0.025 ± 0.098, N 0.088 ± 0.13, P -0.495 ± 0.081, Q -0.095 ± 0.16, R -0.192 ± 0.057, S 0.161 ± 0.06, T 0.064 ± 0.082, V 0.092 ± 0.068, W -0.137 ± 0.094, Y -0.136 ± 0.28
K28: A 0.127 ± 0.31, C -0.01 ± 0.13, D 0.068 ± 0.26, F -0.277 ± 0.27, G -0.077 ± 0.064, I 0.013 ± 0.1, L -0.07 ± 0.053, M -0.051 ± 0.17, N -0.133 ± 0.17, S -0.017 ± 0.074, T 0.002 ± 0.085, V 0.089 ± 0.07, Y -0.216 ± 0.35
A29: C -0.31 ± 0.3, D 0.063 ± 0.18, E -0.096 ± 0.29, F -0.208 ± 0.12, G -0.135 ± 0.053, H -0.149 ± 0.33, I -0.204 ± 0.21, K 0.066 ± 0.14, L -0.051 ± 0.063, M -0.049 ± 0.12, N -0.438 ± 0.28, P -0.497 ± 0.089, Q -0.04 ± 0.11, R 0.047 ± 0.054, S -0.02 ± 0.089, T -0.023 ± 0.07, V -0.27 ± 0.083, W -0.034 ± 0.067, Y -0.214 ± 0.21
L30: A -0.255 ± 0.072, C 0.057 ± 0.092, D -0.101 ± 0.27, E -0.091 ± 0.1, F -0.17 ± 0.083, I -0.134 ± 0.16, K 0.134 ± 0.083, M -0.595 ± 0.35, N 0.151 ± 0.1, P -0.158 ± 0.094, Q 0.015 ± 0.094, R 0.069 ± 0.052, S -0.216 ± 0.11, T -0.008 ± 0.066, V -0.053 ± 0.093, W -0.245 ± 0.055
L31: A 0.127 ± 0.059, D -0.164 ± 0.19, E 0.069 ± 0.082, F 0.047 ± 0.13, G 0.076 ± 0.048, H -0.021 ± 0.13, I -0.061 ± 0.14, K 0.134 ± 0.095, M 0.169 ± 0.067, P 0.028 ± 0.079, Q 0.086 ± 0.082, R -0.043 ± 0.091, T 0.074 ± 0.1, V -0.048 ± 0.074, W -0.26 ± 0.16, Y -0.064 ± 0.18
G32: C -0.514 ± 0.2, D -0.29 ± 0.17, E -0.522 ± 0.083, F -0.275 ± 0.12, I -0.438 ± 0.32, K -0.206 ± 0.1, L -0.64 ± 0.12, M -0.567 ± 0.12, N -0.246 ± 0.12, P -0.026 ± 0.3, R -0.258 ± 0.067, S -0.453 ± 0.083, T -0.526 ± 0.15, V -0.429 ± 0.19, W -0.282 ± 0.1, Y -0.269 ± 0.32
E33: A 0.002 ± 0.056, C 0.006 ± 0.094, D 0.074 ± 0.092, F -0.109 ± 0.16, I -0.074 ± 0.16, K 0.037 ± 0.21, L -0.195 ± 0.059, M -0.049 ± 0.12, P -0.007 ± 0.08, Q -0.009 ± 0.071, S -0.045 ± 0.068, T -0.032 ± 0.056, Y -0.119 ± 0.19
R34: A 0.045 ± 0.084, C 0.056 ± 0.1, E 0.14 ± 0.076, F -0.298 ± 0.24, G 0.032 ± 0.077, K 0.187 ± 0.092, L -0.177 ± 0.06, M -0.207 ± 0.088, N 0.043 ± 0.3, P 0.01 ± 0.12, Q 0.088 ± 0.11, S -0.019 ± 0.071, T 0.018 ± 0.062, V -0.129 ± 0.088, W -0.558 ± 0.22
L35: A 0.1 ± 0.082, C -0.113 ± 0.18, D 0.064 ± 0.076, E -0.109 ± 0.12, F -0.257 ± 0.12, G 0.088 ± 0.069, H 0.061 ± 0.18, I 0.087 ± 0.15, K 0.244 ± 0.17, M -0.399 ± 0.13, N 0.091 ± 0.26, P -0.02 ± 0.087, Q 0.043 ± 0.12, R 0.096 ± 0.069, S -0.031 ± 0.073, T 0.028 ± 0.14, V -0.015 ± 0.089, W 0.045 ± 0.087, Y 0.015 ± 0.16
S36: A 0.041 ± 0.066, E 0.024 ± 0.07, F -0.085 ± 0.13, G -0.093 ± 0.055, H -0.564 ± 0.28, I 0 ± 0.43, K 0.047 ± 0.11, L 0.025 ± 0.054, M -0.092 ± 0.093, N -0.197 ± 0.14, P -0.107 ± 0.065, Q 0.047 ± 0.1, R -0.004 ± 0.057, T 0.012 ± 0.12, V 0.07 ± 0.064, W -0.177 ± 0.07, Y -0.263 ± 0.18
Q37: A 0.003 ± 0.088, C -0.533 ± 0.25, D -0.351 ± 0.42, E 0.06 ± 0.098, G -0.072 ± 0.072, H -0.504 ± 0.27, K 0.022 ± 0.14, L -0.017 ± 0.079, M -0.278 ± 0.14, N 0.221 ± 0.25, P 0.266 ± 0.16, R -0.087 ± 0.077, S -0.104 ± 0.13, T 0.021 ± 0.082, W -0.031 ± 0.099
R38: A 0.001 ± 0.068, C -0.079 ± 0.08, D 0.1 ± 0.075, E -0.232 ± 0.17, F -0.104 ± 0.2, G 0.014 ± 0.042, I 0.03 ± 0.069, K -0.67 ± 0.47, L -0.053 ± 0.068, M -0.112 ± 0.1, N 0.085 ± 0.1, P -0.056 ± 0.058, Q -0.212 ± 0.21, S 0.001 ± 0.08, T -0.052 ± 0.076, V -0.021 ± 0.071, W -0.107 ± 0.061, Y -0.114 ± 0.14
V40: A 0.006 ± 0.07, C -0.086 ± 0.097, D 0.043 ± 0.13, E 0.169 ± 0.07, F -0.086 ± 0.24, G -0.055 ± 0.065, H 0.038 ± 0.095, I 0.047 ± 0.19, K -0.04 ± 0.082, M 0.048 ± 0.091, Q 0.063 ± 0.071, R 0.108 ± 0.045, S -0.011 ± 0.073, T -0.187 ± 0.12, W 0.041 ± 0.055, Y -0.117 ± 0.23
D41: A -0.151 ± 0.071, C -0.059 ± 0.14, E -0.077 ± 0.083, G -0.162 ± 0.087, H -0.437 ± 0.11, I -0.184 ± 0.15, K -0.095 ± 0.062, L -0.305 ± 0.092, M -0.302 ± 0.12, N -0.506 ± 0.48, P -0.221 ± 0.14, Q -0.365 ± 0.17, R -0.15 ± 0.062, T -0.104 ± 0.056, V -0.237 ± 0.076, W -0.158 ± 0.075, Y 0.03 ± 0.2
E42: A -0.183 ± 0.068, C -0.074 ± 0.2, D -0.166 ± 0.12, G -0.081 ± 0.052, I -0.204 ± 0.11, K -0.178 ± 0.15, L -0.175 ± 0.066, M -0.143 ± 0.14, P -0.301 ± 0.098, Q -0.272 ± 0.1, R -0.08 ± 0.089, S -0.136 ± 0.077, V -0.108 ± 0.088, W -0.183 ± 0.087, Y -0.309 ± 0.29
I43: A 0.254 ± 0.091, C -0.009 ± 0.14, E 0.038 ± 0.12, F -0.282 ± 0.29, G 0.123 ± 0.069, H 0.161 ± 0.17, K 0.053 ± 0.067, M -0.017 ± 0.074, N 0.053 ± 0.18, P -0.032 ± 0.12, Q 0.099 ± 0.11, R 0.03 ± 0.065, S 0.08 ± 0.063, T 0.092 ± 0.084, V 0.01 ± 0.084, W -0.142 ± 0.056, Y -0.345 ± 0.33
L44: A 0.116 ± 0.067, D -0.064 ± 0.14, E -0.123 ± 0.14, G -0.01 ± 0.071, H 0.097 ± 0.3, I 0.072 ± 0.15, K 0.055 ± 0.14, M -0.219 ± 0.21, P -0.323 ± 0.17, R -0.178 ± 0.09, T 0 ± 0.12, V 0 ± 0.087, W -0.496 ± 0.25
Q45: A -0.069 ± 0.061, D -0.144 ± 0.092, E -0.076 ± 0.092, F -0.263 ± 0.097, G -0.19 ± 0.12, H -0.013 ± 0.22, I -0.01 ± 0.13, K -0.215 ± 0.19, L 0.015 ± 0.064, M -0.141 ± 0.092, P -0.133 ± 0.073, R 0.054 ± 0.072, S -0.147 ± 0.096, T 0.003 ± 0.067, V -0.108 ± 0.068, W -0.109 ± 0.076, Y -0.16 ± 0.12
D46: E -0.155 ± 0.078, F -0.321 ± 0.11, H -0.366 ± 0.16, I -0.408 ± 0.12, K -0.148 ± 0.13, L -0.326 ± 0.1, M -0.42 ± 0.076, N -0.2 ± 0.11, Q -0.152 ± 0.089, R -0.493 ± 0.066, S -0.123 ± 0.069, T 0.042 ± 0.1, V -0.343 ± 0.083, W -0.446 ± 0.08, Y -0.475 ± 0.22
V47: A -0.143 ± 0.055, C -0.241 ± 0.088, D -0.236 ± 0.053, E -0.137 ± 0.056, F -0.15 ± 0.051
